Reference: patent publication US20200078399A1 (LEGEND BIOTECH USA, published 2020)

How the values were obtained:
Assay in all cases: cell-based or functional assay
[1] = target: human BCMA (B cell mature antigen, CD269, TNFRSF17) on cells (human) (UniProt Q02223)
[2] = target: T1, CD38 on K562.CD38.Luc cells (UniProt P28907 1-300, limits assumed)
T1 sequence (looked up): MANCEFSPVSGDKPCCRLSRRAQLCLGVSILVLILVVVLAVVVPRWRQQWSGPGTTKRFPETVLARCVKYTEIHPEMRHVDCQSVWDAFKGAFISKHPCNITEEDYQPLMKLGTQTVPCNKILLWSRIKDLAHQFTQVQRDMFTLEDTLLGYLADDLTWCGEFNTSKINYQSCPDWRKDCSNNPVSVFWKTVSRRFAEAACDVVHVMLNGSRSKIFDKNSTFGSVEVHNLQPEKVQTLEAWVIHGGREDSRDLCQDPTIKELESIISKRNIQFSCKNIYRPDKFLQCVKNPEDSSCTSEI

[3] = target: T2, human BCMA (B cell mature antigen, CD269, TNFRSF17) on cells (human, UniProt Q02223 1-184)
T2 sequence: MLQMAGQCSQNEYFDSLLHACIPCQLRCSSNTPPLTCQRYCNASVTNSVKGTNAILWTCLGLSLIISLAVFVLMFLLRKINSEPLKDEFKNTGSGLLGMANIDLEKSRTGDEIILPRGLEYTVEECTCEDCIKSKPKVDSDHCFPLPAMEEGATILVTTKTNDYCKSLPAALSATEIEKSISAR

Work on LCAR-B27S CAR yielded a percentage of remaining viable RPMI8226.Luc cells (remaining luciferase activity), CAR-T from patient A, E/T 5:1, 20 hours [1] of 68.6%, a percentage of remaining viable RPMI8226.Luc cells (remaining luciferase activity), CAR-T from patient A, E/T 20:1, 20 hours [1] of 3.17% and a percentage of remaining viable RPMI8226.Luc cells (remaining luciferase activity), CAR-T from patient B, E/T 5:1, 20 hours [1] of 84%. For the same molecule, the percentage of remaining viable RPMI8226.Luc cells (remaining luciferase activity), CAR-T from patient B, E/T 20:1, 20 hours [1] was 9.32%, the percentage of remaining viable RPMI8226.Luc cells (remaining luciferase activity), CAR-T from patient C, E/T 5:1, 20 hours [1] was 101% and the percentage of remaining viable RPMI8226.Luc cells (remaining luciferase activity), CAR-T from patient C, E/T 20:1, 20 hours [1] was 10.1%.

In the case of LCAR-B38M CAR, the percentage of remaining viable RPMI8226.Luc cells (remaining luciferase activity), CAR-T from patient A, E/T 5:1, 20 hours [1] is reported as 33.4%, the percentage of remaining viable RPMI8226.Luc cells (remaining luciferase activity), CAR-T from patient A, E/T 20:1, 20 hours [1] is reported as 3.97% and the percentage of remaining viable RPMI8226.Luc cells (remaining luciferase activity), CAR-T from patient B, E/T 5:1, 20 hours [1] is reported as 40.9%. The percentage of remaining viable RPMI8226.Luc cells (remaining luciferase activity), CAR-T from patient B, E/T 20:1, 20 hours [1] was 4.45%, the percentage of remaining viable RPMI8226.Luc cells (remaining luciferase activity), CAR-T from patient C, E/T 5:1, 20 hours [1] was 30% and the percentage of remaining viable RPMI8226.Luc cells (remaining luciferase activity), CAR-T from patient C, E/T 20:1, 20 hours [1] was 2.56%.

B1: BCAR001 (other)
chain: QVKLEESGGGLVQAGRSLRLSCAASEHTFSSHVMGWFRQAPGKERESVAVIGWRDISTSYADSVKGRFTISRDNAKKTLYLQMNSLKPEDTAVYYCAARRIDAADFDSWGQGTQVTVSSGGGGSAVQLVESGGGLVQAGDSLRLTCTASGRAFSTYFMAWFRQAPGKEREFVAGIAWSGGSTAYADSVKGRFTISRDNAKNTVYLQMNSLKSEDTAVYYCASRGIEVEEFGAWGQGTQVTVSSTSTTTPAPRPPTPAPTIASQPLSLRPEACRPAAGGAVHTRGLDFACDIYIWAPLAGTCGVLLLSLVITLYCKRGRKKLLYIFKQPFMRPVQTTQEEDGCSCRFPEEEEGGCELRVKFSRSADAPAYQQGQNQLYNELNLGRREEYDVLDKRRGRDPEMGGKPRRKNPQEGLYNELQKDKMAEAYSEIGMKGERRRGKGHDGLYQGLSTATKDTYDALHMQALPPR
In the case of B1, the “IFN gamma release in co-culture with K562.CD38.Luc (BCMA negative control; UnT 85.65 pg/ml), mean” value [2] is reported as 136 pg/mL, the “IFN gamma release in co-culture with RPMI8226.Luc, mean” value [3] is reported as 1100 pg/mL and the “IFN gamma release in co-culture with Raji.Luc, mean” value [3] is reported as 796 pg/mL.
